Results reported in paper PMC10995192 (Nature Communications, 2024).

Tests used:
[1] = biological target: SNS-101, fully human monoclonal IgG1 kappa anti-VISTA antibody (human); assay: SPR; panel of VISTA-His variants and wild type as analytes over captured SNS-101; pH 5.8 (PBS, 0.05% Tween-20), 25 °C
[2] = biological target: PSGL-1-19mer-Fc (19 N-terminal residues of human PSGL-1 fused to human IgG1-Fc) (human) (UniProt Q14242); assay: SPR; PSGL-1-19mer-Fc captured on IgG capture chip, VISTA-His (0-960 nM) as analyte; pH 6.0, PBS + 0.05% Tween-20; KD from equilibrium analysis
[3] = biological target: SNS-101, fully human monoclonal IgG1 kappa anti-VISTA antibody (human); assay: SPR; SNS-101 captured on IgG capture chip, VISTA-His (0-480 nM) as analyte; pH 7.2, PBS + 0.05% Tween 20, 25 °C; 1:1 Langmuir MTL fit; pH series
[4] = biological target: SNS-101, fully human monoclonal IgG1 kappa anti-VISTA antibody (human); assay: SPR; SNS-101 captured on IgG capture chip, VISTA-His (0-30 nM) as analyte; pH 6.2, PBS + 0.05% Tween 20, 25 °C; 1:1 Langmuir MTL fit; pH series
[5] = biological target: SNS-101, fully human monoclonal IgG1 kappa anti-VISTA antibody (human); assay: SPR; SNS-101 captured on IgG capture chip, VISTA-His (0-30 nM) as analyte; pH 6.0, PBS + 0.05% Tween 20, 25 °C; 1:1 Langmuir MTL fit; pH series
[6] = biological target: SNS-101, fully human monoclonal IgG1 kappa anti-VISTA antibody (human); assay: SPR; SNS-101 captured on IgG capture chip, VISTA-His (0-480 nM) as analyte; pH 7.0, PBS + 0.05% Tween 20, 25 °C; 1:1 Langmuir MTL fit; pH series
[7] = biological target: SNS-101, fully human monoclonal IgG1 kappa anti-VISTA antibody (human); assay: SPR; SNS-101 captured on IgG capture chip, VISTA-His (0-240 nM) as analyte; pH 6.6, PBS + 0.05% Tween 20, 25 °C; 1:1 Langmuir MTL fit; pH series
[8] = biological target: SNS-101, fully human monoclonal IgG1 kappa anti-VISTA antibody (human); assay: SPR; SNS-101 captured on IgG capture chip, VISTA-His (0-30 nM) as analyte; pH 5.8, PBS + 0.05% Tween 20, 25 °C; 1:1 Langmuir MTL fit; pH series
[9] = biological target: SNS-101, fully human monoclonal IgG1 kappa anti-VISTA antibody (human); assay: SPR; SNS-101 captured on IgG capture chip, VISTA-His (0-240 nM) as analyte; pH 6.4, PBS + 0.05% Tween 20, 25 °C; 1:1 Langmuir MTL fit; pH series
[10] = biological target: SNS-101, fully human monoclonal IgG1 kappa anti-VISTA antibody (human); assay: SPR; SNS-101 captured on IgG capture chip, VISTA-His (0-240 nM) as analyte; pH 6.8, PBS + 0.05% Tween 20, 25 °C; 1:1 Langmuir MTL fit; pH series
[11] = biological target: SNS-101, fully human monoclonal IgG1 kappa anti-VISTA antibody (human); assay: SPR; SNS-101 captured on IgG capture chip, VISTA-His (0-480 nM) as analyte; pH 7.4, PBS + 0.05% Tween 20, 25 °C; 1:1 Langmuir MTL fit; pH series
[12] = biological target: SNS-101, fully human monoclonal IgG1 kappa antibody against VISTA (human); assay: SPR; SNS-101 captured on IgG capture chip, VISTA-His as analyte (0-240 nM), 25 C, PBS 0.05% Tween 20, pH 6.8; 1:1 Langmuir MTL fit
[13] = biological target: SNS-101, fully human monoclonal IgG1 kappa antibody against VISTA (human); assay: SPR; SNS-101 captured on IgG capture chip, VISTA-His as analyte (0-30 nM), 25 C, PBS 0.05% Tween 20, pH 5.8; 1:1 Langmuir MTL fit
[14] = biological target: SNS-101, fully human monoclonal IgG1 kappa antibody against VISTA (human); assay: SPR; SNS-101 captured on IgG capture chip, VISTA-His as analyte (0-240 nM), 25 C, PBS 0.05% Tween 20, pH 6.4; 1:1 Langmuir MTL fit
[15] = biological target: SNS-101, fully human monoclonal IgG1 kappa antibody against VISTA (human); assay: SPR; SNS-101 captured on IgG capture chip, VISTA-His as analyte (0-30 nM), 25 C, PBS 0.05% Tween 20, pH 6.0; 1:1 Langmuir MTL fit
[16] = biological target: SNS-101, fully human monoclonal IgG1 kappa antibody against VISTA (human); assay: SPR; SNS-101 captured on IgG capture chip, VISTA-His as analyte (0-30 nM), 25 C, PBS 0.05% Tween 20, pH 6.2; 1:1 Langmuir MTL fit
[17] = biological target: SNS-101, fully human monoclonal IgG1 kappa antibody against VISTA (human); assay: SPR; SNS-101 captured on IgG capture chip, VISTA-His as analyte (0-480 nM), 25 C, PBS 0.05% Tween 20, pH 7.4; 1:1 Langmuir MTL fit
[18] = biological target: SNS-101, fully human monoclonal IgG1 kappa antibody against VISTA (human); assay: SPR; SNS-101 captured on IgG capture chip, VISTA-His as analyte (0-480 nM), 25 C, PBS 0.05% Tween 20, pH 7.2; 1:1 Langmuir MTL fit
[19] = biological target: SNS-101, fully human monoclonal IgG1 kappa antibody against VISTA (human); assay: SPR; SNS-101 captured on IgG capture chip, VISTA-His as analyte (0-240 nM), 25 C, PBS 0.05% Tween 20, pH 6.6; 1:1 Langmuir MTL fit
[20] = biological target: SNS-101, fully human monoclonal IgG1 kappa antibody against VISTA (human); assay: SPR; SNS-101 captured on IgG capture chip, VISTA-His as analyte (0-480 nM), 25 C, PBS 0.05% Tween 20, pH 7.0; 1:1 Langmuir MTL fit
[21] = biological target: T1, VISTA-His H98A/H100A/H154A/H155A/R159A (human, UniProt Q9H7M9, H98A | H100A | H154A | H155A | R159A); assay: SPR; panel of VISTA-His variants and wild type as analytes over captured SNS-101; pH 5.8 (PBS, 0.05% Tween-20), 25 °C; settings: both partners purified
T1 construct: VISTA, human; probably the extracellular domain; source: Expi293, purified (Ni-NTA)

[22] = biological target: T2, C-terminal biotinylated hVISTA-Fc fusion protein (R&D Systems AVI7126-050) (human, UniProt Q9H7M9 33-194, biotin, C-terminal); assay: ELISA; partner proteins coated at 5 µg/ml, biotinylated hVISTA-Fc serially diluted in 1% NFDM in PBS at pH 6.0; HRP-streptavidin; settings: both partners purified
T2 construct: VISTA, human; source: bought: R&D Systems AVI7126-050
T2 sequence (looked up): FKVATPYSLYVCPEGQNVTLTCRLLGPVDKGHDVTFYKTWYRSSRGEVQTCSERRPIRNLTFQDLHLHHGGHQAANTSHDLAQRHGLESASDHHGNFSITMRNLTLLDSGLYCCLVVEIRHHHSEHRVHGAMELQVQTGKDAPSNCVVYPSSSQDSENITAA

Sequence of PSGL-1-19mer-Fc (19 N-terminal residues of human PSGL-1 fused to human IgG1-Fc) (human) (Q14242 42-412): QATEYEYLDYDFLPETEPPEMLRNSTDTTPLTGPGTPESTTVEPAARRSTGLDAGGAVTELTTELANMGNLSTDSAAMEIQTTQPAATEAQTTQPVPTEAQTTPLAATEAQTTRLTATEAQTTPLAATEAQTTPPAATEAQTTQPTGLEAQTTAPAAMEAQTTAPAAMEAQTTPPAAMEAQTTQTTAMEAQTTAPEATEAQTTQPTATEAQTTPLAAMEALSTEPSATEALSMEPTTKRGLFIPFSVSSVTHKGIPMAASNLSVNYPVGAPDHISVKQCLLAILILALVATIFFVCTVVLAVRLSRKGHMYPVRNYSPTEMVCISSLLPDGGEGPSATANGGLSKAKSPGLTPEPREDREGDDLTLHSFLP

VISTA-His (wild-type human VISTA) (from UniProt Q9H7M9 33-311) (natural protein)
Kd [1]: 0.7 nM
koff [1]: 0.0022 s⁻¹
kon [1]: 3.2e+06 M⁻¹ s⁻¹
Kd [2]: 600 nM
Kd [3]: 134 nM
koff [3]: 0.0147 s⁻¹
kon [3]: 110000 M⁻¹ s⁻¹
Kd [4]: 1.78 nM
koff [4]: 0.00219 s⁻¹
kon [4]: 1.23e+06 M⁻¹ s⁻¹
Kd [5]: 0.779 nM
koff [5]: 0.00213 s⁻¹
kon [5]: 2.74e+06 M⁻¹ s⁻¹
Kd [6]: 77 nM
koff [6]: 0.0101 s⁻¹
kon [6]: 131000 M⁻¹ s⁻¹
Kd [7]: 18.5 nM
koff [7]: 0.00566 s⁻¹
kon [7]: 306000 M⁻¹ s⁻¹
koff [8]: 0.00129 s⁻¹
kon [8]: 3.68e+06 M⁻¹ s⁻¹
Kd [9]: 5.96 nM
koff [9]: 0.00321 s⁻¹
kon [9]: 539000 M⁻¹ s⁻¹
Kd [10]: 40.1 nM
koff [10]: 0.00842 s⁻¹
kon [10]: 210000 M⁻¹ s⁻¹
koff [11]: 0.0308 s⁻¹
kon [11]: 87200 M⁻¹ s⁻¹

VISTA-His (human VISTA, V-domain immunoglobulin suppressor of T-cell activation, with His tag) (from UniProt Q9H7M9 33-311) (natural protein)
Kd [12]: 40.1 nM
koff [12]: 0.00842 s⁻¹
kon [12]: 210000 M⁻¹ s⁻¹
koff [13]: 0.00129 s⁻¹
kon [13]: 3.68e+06 M⁻¹ s⁻¹
Kd [14]: 5.96 nM
koff [14]: 0.00321 s⁻¹
kon [14]: 539000 M⁻¹ s⁻¹
Kd [15]: 0.779 nM
koff [15]: 0.00213 s⁻¹
kon [15]: 2.74e+06 M⁻¹ s⁻¹
Kd [16]: 1.78 nM
koff [16]: 0.00219 s⁻¹
kon [16]: 1.23e+06 M⁻¹ s⁻¹
koff [17]: 0.0308 s⁻¹
kon [17]: 87200 M⁻¹ s⁻¹
Kd [18]: 134 nM
koff [18]: 0.0147 s⁻¹
kon [18]: 110000 M⁻¹ s⁻¹
Kd [19]: 18.5 nM
koff [19]: 0.00566 s⁻¹
kon [19]: 306000 M⁻¹ s⁻¹
Kd [20]: 77 nM
koff [20]: 0.0101 s⁻¹
kon [20]: 131000 M⁻¹ s⁻¹

B1: SNS-101, fully human monoclonal IgG1 kappa anti-VISTA antibody (antibody, V domains shown)
VH: EVQLVESGGGLVQPGGSLRLSCAASGFTFDDYSMNWVRQAPGKGLEWVSYISSDADTIYYADSVKGRFTISRDNAKNSLYLQMNSLRAEDTAVYYCAREAGGVLGRVDFQHWGQGTLVTVSS
VL: DIQLTQSPSSLSASVGDRVTITCQASQDISNYLNWYQQKPGKAPKLLIYDASNLGTGVPSRFSGSGSGTDFTFTISSLQPEDIATYYCQQADFVPPWTFGGGTKVEIK
notes: the Fab part is in PDB 8TBQ; human IgG1 heavy chain; the light chain is in PDB 8TBQ; human kappa light chain; IgG1 kappa; captured on an IgG capture sensor chip in SPR; source: ExpiCHO, transient transfection, purified (Protein A)
Kd [21]: > 960 nM

B2: hSyndecan-2 (R&D Systems 2965-SD) (natural protein, human, UniProt P34741 19-144, looked up)
chain: ESRAELTSDKDMYLDNSSIEEASGVYPIDDDDYASASGSGADEDVESPELTTSRPLPKILLTSAAPKVETTTLNIQNKIPAQTKSPEETDKEKVHLSDSERKMDPAEEDTNVYTEKHSDSLFKRTE
notes: Syndecan-2, human; source: bought: R&D Systems 2965-SD
binding result [22]: binds
